Results reported in publication PMC6677831, “X-ray Crystallographic Structure and Oligomerization of Gloeobacter Rhodopsin” (Scientific Reports, 2019).
Residue numbers refer to the chain shown, from its start. Names may count otherwise.

How the values were obtained:
[1] = target: T1, Gloeobacter rhodopsin (GR) (Gloeobacter violaceus, UniProt Q7NP59); experiment: X-ray crystal structure, […] A; assay type: binding; conditions: covalent, protonated Schiff base at Lys257; dark state; bicelle crystals, pH 3.4, 100 K
T1 construct: gene gll0198; wild type, C-terminal 6xHis tag, expressed in E. coli C43(DE3) with added retinal; 33 kDa; monomer at pH 3.0, pentamer at pH 8.0 in DDM

[2] = target: Mastigocladopsis repens halorhodopsin (Mastigocladopsis repens); experiment: not stated; unpublished observation of the authors
[3] = target: the molecule itself; experiment: SEC; Superdex 200 10/300 GL; 20 mM Tris-HCl pH 8.0, 300 mM NaCl, 0.04% DDM
[4] = target: the molecule itself; experiment: DEER spectroscopy; Q-band, 80 K, 20% deuterated glycerol, GR-67R1 in detergent micelles at pH 8.0; distances between spin labels of protomers

In the case of CC1=C(/C=C/C(C)=C/C=C/C(C)=C/C=O)C(C)(C)CCC1 [all-trans-retinal], the “X-ray crystal structure, 2.0 A” value [1] is reported as “the all-trans-retinal chromophore is covalently bound to the opsin protein moiety via a Schiff base”.

Molecule “Mastigocladopsis repens halorhodopsin (natural protein)” has a stoichiometry N [2] of 3.

B1: Gloeobacter rhodopsin (natural protein, Gloeobacter violaceus PCC 7421)
chain: MLMTVFSSAPELALLGSTFAQVDPSNLSVSDSLTYGQFNLVYNAFSFAIAAMFASALFFFSAQALVGQRYRLALLVSAIVVSIAGYHYFRIFNSWDAAYVLENGVYSLTSEKFNDAYRYVDWLLTVPLLLVETVAVLTLPAKEARPLLIKLTVASVLMIATGYPGEISDDITTRIIWGTVSTIPFAYILYVLWVELSRSLVRQPAAVQTLVRNMRWLLLLSWGVYPIAYLLPMLGVSGTSAAVGVQVGYTIADVLAKPVFGLLVFAIALVKTKADQESSEPHAAIGAAANKSGGSLIS
modifications: all-trans-retinal covalently bound to Lys257 via a protonated Schiff base
notes: Gloeobacter rhodopsin (GR), light-driven proton pump of Gloeobacter violaceus PCC 7421; 33 kDa; Membrane protein in detergent micelles (0.04% DDM) in the oligomerisation experiments; also called GR; wild-type GR; source: E. coli C43(DE3), purified (TALON Co2+ column, Superdex 200) in OG or DDM
B1: binds [3].

B2: spin-labeled GR-67R1 (natural protein, Gloeobacter violaceus PCC 7421)
chain: B1 chain with G67C
modifications: R1 nitroxide side chain at Cys67; all-trans-retinal bound to Lys257 via a Schiff base
notes: Gloeobacter rhodopsin (GR) of Gloeobacter violaceus PCC 7421 with G67C, spin-labeled at 67; also called spin labeled G67C mutant of GR
With B2 the “stoichiometry N” value [4] was 5.
